# Laboratory results: US10413588B2, “Probiotic function of human intelectin” (Wisconsin Alumni Research Foundation, priority 2015, dated 2019)
# B1: hIntL-1: human lectin intelectin-1, accession no. Q8WWA0; recombinant disulfide-linked trimer from HEK 293T cells, used also N-terminally Strep-tagged (Strep-hIntL-1) (protein, listed as Homo sapiens)
# chain: MNQLSFLLFLIATTRGWSTDEANTYFKEWTCSSSPSLPRSCKEIKDECPSAFDGLYFLRTENGVIYQTFCDMTSGGGGWTLVASVHENDMRGKCTVGDRWSSQQGSKAVYPEGDGNWANYNTFGSAEAATSDDYKNPGYYDIQAKDLGIWHVPNKSPMQHWRNSSLLRYRTDTGFLQTLGHNLFGIYQKYPVKYGEGKCWTDNGPVIPVVYDFGDAQKTASYYSPYGQREFTAGFVQFRVFNNERAANALCAGMRVTGCNTEHHCIGGGGYFPEASPQQCGDFSGFDWSGYGTHVGYSSSREITEAAVLLFYR
# What was measured:
# [1] = Microbial Glycan Microarray (MGMv2); assay type: binding, E. coli; conditions: Strep-hIntL-1 50 μg/mL; terminal α-Galf residue
# Experimental: (§1) Strep-hIntL-1 was used to interrogate the Microbial Glycan Microarray version 2 (MGMv2). Construction of the MGMv2 is previously described. Briefly, bacterial polysaccharide samples were dissolved and diluted to 0.5 mg/mL in printing buffer (150 mM sodium phosphate buffer (8.4)+0.005% Tween-20). Samples were immobilized on NETS-activated glass slides (SlideH, Schott/Nexterion) using a MicroGrid II (Digilab) contact microarray printer equipped with SMP-4B printing pins (Telechem). Six replicates of each bacterial glycan sample were printed. Covalent coupling of glycans to the surface was facilitated by incubation for 1 hour postprint at 100% relative humidity. The remaining reactive NHS-moieties were quenched using a blocking solution (50 mM ethanolamine in 50 mM borate buffer (9.2)). Blocked slides were stored at −20° C. until assays were performed. […] The Strep-Tag® II on bound hIntL-1 was detected using StrepMAB-Classic Chromeo647 (10 μg/mL, IBA GmbH Lifesciences) diluted in binding buffer applied directly to the array surface and allowed to incubate for 1 hour. […] Signal data was calculated as the average of 4 values after removing the high and low values of the 6 replicates. Data were plotted using Excel (Microsoft) as average Relative Fluorescence Units (RFU) versus print identification number. […]
# [2] = Microbial Glycan Microarray (MGMv2); assay type: binding, S. pneumonia; conditions: Strep-hIntL-1 50 μg/mL; α-Galf containing glycan
# Experimental: as §1
# [3] = Microbial Glycan Microarray (MGMv2); assay type: binding, Shigella boydii; conditions: Strep-hIntL-1 50 μg/mL; terminal α-Galf residue
# Experimental: as §1
# [4] = test system: adult male fecal microbiome; assay: Flow cytometry binding to adult fecal microbiome; design: species or system human; conditions: adult fecal sample, 15 μg/mL Strep-tagged-hIntL-1, 10 mM CaCl2
# Experimental: Human fecal samples provide a non-invasive proxy of the intestinal microbiome of a patient. The inventors have isolated the intestinal microbiome from human fecal samples and analyzed it for hIntL-1 binding. The isolated microbiome was fixed using an aqueous solution of 1% formaldehyde. Cells were stained as described elsewhere, using either a solution including calcium ions (100 mM) or one containing the calcium ion chelator EDTA. Microbes were exposed to 20 mM HEPES (pH 7.2), 150 mM NaCl, 10 mM CaCl2, 15 μg/mL Strep-tagged-hIntL-1, 0.1% bovine serum albumin (BSA), 0.05% tween-20, 2 μg/mL StrepMAB Classic conjugated to Oyster 645 (IBA Lifesciences, cat. no.: 2-1555-050). To test for a role for calcium ions, cells were exposed to a solution of 20 mM HEPES (pH 7.2), 150 mM NaCl, 1 mM EDTA, 15 μg/mL Strep-tagged-hIntL-1, 0.1% bovine serum albumin (BSA), 0.05% tween-20, 2 μg/mL StrepMAB Classic Conjugated to Oyster 645 (IBA Lifesciences, cat. no.: 2-1555-050). Cells are analyzed consecutively on a BD LSRII flow cytometer using identical instrument setting. Unstained cells, cells stained in the presence of calcium ions (10 mM), and cells stained in the presence of EDTA were directly compared. […]
# Lactobacillus reuteri = assay: Flow cytometry binding to microbiome strain; conditions: fixed cells; 15 μg/mL Strep-tagged-hIntL-1, 10 mM CaCl2 vs EDTA control
# Experimental: (§2) The inventors have begun to examine the binding of hIntL-1 to bacteria known to reside in the human intestine. Strains of relevant bacteria were grown anaerobically. The samples are fixed using 1% formaldehyde for 30 min on ice. […] Fixed cells are exposed to Strep-tagged (IBS Lifesciences) -hIntL-1. The Strep-tag not necessary for function but added because it facilitates purification and detection. Cells were analyzed by flow cytometry on a BD FACSCalibur or LSRII. Bacterial cells were identified using either propidium iodide (PI) or DAPI. An anti-Strep-tag antibody conjugated to the fluorophore Oyster 645 nm was used to detect the population of bacteria bound by hIntL-1.
# (§3) To determine whether observed binding is dependent on hIntL-1 interaction with microbial glycans, the inventors take advantage of critical role of calcium ions in hIntL-1 binding. The addition of the calcium ion chelator EDTA, which sequesters bound calcium ions, serves as an important specificity control. Fixed bacteria are incubated in 20 mM HEPES (pH 7.2), 150 mM NaCl, 10 mM CaCl2, 15 μg/mL Strep-tagged-hIntL-1, 0.1% bovine serum albumin (BSA), 0.05% Tween-20, 2 μg/mL StrepMAB-Classic conjugated to Oyster 645 (IBA Lifesciences, cat. no.: 2-1555-050). For the cells incubated in the absence of calcium ions, the following solution is used 20 mM HEPES (pH 7.2), 150 mM NaCl, 5 mM EDTA, 15 μg/mL Strep-tagged-hIntL-1, 0.1% bovine serum albumin (BSA), 0.05% tween-20, 2 μg/mL StrepMAB-Classic conjugated to Oyster 645 (IBA Lifesciences, cat. no.: 2-1555-050). Cell samples were analyzed by flow cytometry consecutively using an identical instrument setting. The percentages of unstained cells, cells stained in the presence of calcium ions, and cells stained in the presence of EDTA were directly compared. Increased hIntL-1 binding signal in the presence of calcium ions when compared to unstained cells or the EDTA sample indicates specific binding to the surface glycans of that strain of bacteria. FIG. 17 is representative of the data obtained. A list of bacteria bound by hIntL-1 can be found in Table 1. […]
# [5] = test system: Bacteroides xylanisolvens; assay: Flow cytometry binding to microbiome strain; conditions: fixed cells; 15 μg/mL Strep-tagged-hIntL-1, 10 mM CaCl2 vs EDTA control
# Experimental: as §2, §3
# Bifidobacterium dentium = assay: Flow cytometry binding to microbiome strain; conditions: fixed cells; 15 μg/mL Strep-tagged-hIntL-1, 10 mM CaCl2 vs EDTA control
# Experimental: as §2, §3
molecule,measurement,setting,value
B1,signal on microbial glycan array,[1],49 RFU
same,average signal on microbial glycan array,[2],−9.6 RFU
same,signal on microbial glycan array,[3],26 RFU
same,fraction of bacteria of the human microbiome bound by hIntL-1,[4],approximately 25%
same,binding of hIntL-1 to Lactobacillus reuteri by flow cytometry,Lactobacillus reuteri,binds
same,binding of hIntL-1 to Bacteroides xylanisolvens by flow cytometry,[5],not
same,binding of hIntL-1 to Bifidobacterium dentium by flow cytometry,Bifidobacterium dentium,binds
